{
  "source": "patent US11814447B2",
  "about": "“Peptide ligands for binding to EphA2” (BICYCLERD LIMITED, priority 2018, dated 2023)",
  "key": {"[1]": {"target": "EphA2 (species not stated in Examples 1-6 and Reference Examples 1-2) (Homo sapiens (Human)) (UniProt P29317)", "sequence (P29317 24-537 limits assumed, form in doubt)": "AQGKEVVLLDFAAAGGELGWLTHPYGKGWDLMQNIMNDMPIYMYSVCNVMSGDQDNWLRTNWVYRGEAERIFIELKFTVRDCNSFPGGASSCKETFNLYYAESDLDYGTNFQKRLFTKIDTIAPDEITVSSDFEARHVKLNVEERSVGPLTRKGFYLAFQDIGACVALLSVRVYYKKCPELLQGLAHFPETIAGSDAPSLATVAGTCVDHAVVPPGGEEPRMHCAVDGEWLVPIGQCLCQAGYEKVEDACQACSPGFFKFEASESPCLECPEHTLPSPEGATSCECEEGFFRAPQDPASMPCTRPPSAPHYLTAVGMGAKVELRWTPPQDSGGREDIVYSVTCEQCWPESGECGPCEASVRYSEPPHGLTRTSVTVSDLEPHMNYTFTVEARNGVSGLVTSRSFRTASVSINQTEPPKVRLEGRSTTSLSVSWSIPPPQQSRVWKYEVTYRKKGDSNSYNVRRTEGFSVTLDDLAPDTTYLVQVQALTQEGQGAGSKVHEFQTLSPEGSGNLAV", "assay": "fluorescence polarisation competition; fluorescent peptide not named"}, "[2]": {"target": "EphA2 (species not stated in Examples 1-6 and Reference Examples 1-2) (Homo sapiens (Human), UniProt P29317 24-537)", "sequence (P29317 24-537 limits assumed, form in doubt)": "as above", "assay": "fluorescence polarisation competition; fluorescent peptide not named"}, "[3]": {"target": "T1, Human EphA2 (Ecto), C-terminal polyHis (Human, UniProt P29317 24-537)", "T1 construct": "extracellular domain; also called EPH receptor A2; ephrin type-A receptor 2", "T1 sequence (P29317 24-537)": "as the sequence (P29317 24-537 limits assumed, form in doubt) above", "assay": "fluorescence polarisation competition; competitor fluorescent Compound 1", "procedure": "(§1) Peptides without a fluorescent tag were tested in competition with a peptide with a fluorescent tag and a known Kd (Table 2). Peptides were diluted to an appropriate concentration in assay buffer as described in the direct binding assay with a maximum of 5% DMSO, then serially diluted 1 in 2. […] Measurements were conducted as for the direct binding assay, however the gain was determined prior to the first measurement. Data analysis was in Systat Sigmaplot version 12.0 where the mP values were fit to a user defined cubic equation to generate a Ki value: […]"}, "[4]": {"target": "T1, Human EphA2 (Ecto), C-terminal polyHis", "assay": "fluorescence polarisation competition; competitor fluorescent Compound 12", "procedure": "as §1"}, "[5]": {"target": "T1, Human EphA2 (Ecto), C-terminal polyHis", "assay": "fluorescence polarisation competition; competitor fluorescent Compound 66", "summary_of_the_method": "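Unlabelled peptides competed against a fluorescently tagged peptide of known Kd. Peptides were diluted in direct-binding assay buffer (≤5% DMSO) and serially diluted 1 in 2. Read as in the direct binding assay, with gain set before the first read; mP values fit to a cubic equation to give Ki.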"}, "[6]": {"target": "Human EphA2 (Ecto) (Human) (UniProt P29317)", "sequence (P29317 24-537)": "as the sequence (P29317 24-537 limits assumed, form in doubt) above", "assay": "FP direct binding"}, "[7]": {"target": "T2, Mouse EphA2 (Ecto) (Mouse, UniProt Q03145 26-538)", "T2 construct": "extracellular domain; not shown: Fc fusion or C-terminal polyHis", "T2 sequence (Q03145 26-538)": "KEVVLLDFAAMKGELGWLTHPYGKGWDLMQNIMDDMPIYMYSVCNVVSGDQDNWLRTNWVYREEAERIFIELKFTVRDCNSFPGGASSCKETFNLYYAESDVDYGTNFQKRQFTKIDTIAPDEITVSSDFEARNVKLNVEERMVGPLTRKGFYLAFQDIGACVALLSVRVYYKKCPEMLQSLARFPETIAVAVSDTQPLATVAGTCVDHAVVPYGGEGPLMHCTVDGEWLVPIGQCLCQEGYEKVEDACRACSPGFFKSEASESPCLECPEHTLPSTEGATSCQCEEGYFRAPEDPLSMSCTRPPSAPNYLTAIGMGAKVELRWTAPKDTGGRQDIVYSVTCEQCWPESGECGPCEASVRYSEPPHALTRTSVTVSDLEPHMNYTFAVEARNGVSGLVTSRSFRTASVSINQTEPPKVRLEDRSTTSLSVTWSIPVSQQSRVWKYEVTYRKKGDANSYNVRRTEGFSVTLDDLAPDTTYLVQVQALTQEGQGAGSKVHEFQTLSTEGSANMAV", "assay": "fluorescence polarisation, direct binding"}},
  "note": "Starred links: 1 amine or outer side, 2 acyl side, 3 side chain; linkers in the order of their positions; H or OH if unused. Positions of bridges follow the written chain, without caps; N, C: chain ends. Non-standard residues stand in square brackets, D forms with d. Primed or numbered codes have the meaning given here. No end group written: not given here. TATA = O=C(CC[*:1])N1CN(C(=O)CC[*:2])CN(C(=O)CC[*:3])C1; Fl″ = fluorescein label (5(6)-carboxyfluorescein; TBMB = c1c(C[*:1])cc(C[*:3])cc1C[*:2]; hArg = N=C(N)NCCCC[C@H](N)C(=O)O; Dap = NC[C@H](N)C(=O)O; AF488 = AlexaFluor488; βAla = NCCC(=O)O; Sar = CNCC(=O)O",
  "data": [
    {"binder": "Ac-[βAla][Sar][Sar][Sar][Sar][Sar][Sar][Sar][Sar][Sar][Sar]H[dD]VP[Dap]PWGPFW[Dap]PVNRPGC (linker 16-23-30 via TBMB)", "note": "[55-03-05-N314]", "values": [
      {"measurement": "Ki", "setting": "[1]", "result": 136, "unit": "nM"}
    ]},
    {"binder": "[βAla][Sar][Sar][Sar][Sar][Sar][Sar][Sar][Sar][Sar][Sar]H[dD]VPCPWGPFWCPVNRPGC (linker 16-23-30 via TBMB, bicyclic peptide on trimethylene benzene scaffold)", "note": "[55-03-05-N233]", "values": [
      {"measurement": "Ki", "setting": "[2]", "result": 4.12, "unit": "nM"}
    ]},
    {"binder": "ACVPQGIWCALQFEPCA (linker 2-9-16 via TBMB (inferred), also called Compound 63)", "note": "[Bicycle Compound Number 63 (TBMB scaffold)]", "values": [
      {"measurement": "Ki", "setting": "[3]", "result": 144, "unit": "nM"},
      {"measurement": "Ki", "setting": "[4]", "result": 92.2, "unit": "nM"},
      {"measurement": "Ki", "setting": "[5]", "result": 82.5, "unit": "nM"}
    ]},
    {"binder": "{Fl″}-[βAla][Sar][Sar][Sar][Sar][Sar][Sar][Sar][Sar][Sar][Sar]A[hArg]DCPLVNPLCLHPGWTC (linker 15-22-29 via TATA)", "note": "[Bicycle Compound 10 (TATA, Table 11)]", "values": [
      {"measurement": "Kd", "setting": "[6]", "result": 9.07, "unit": "nM"}
    ]},
    {"binder": "AF488-[βAla][Sar][Sar][Sar][Sar][Sar][Sar][Sar][Sar][Sar][Sar]H[dD]VPCPWGPFWCPVNRPGCA (linker 16-23-30 via TBMB)", "note": "[Bicycle Compound Number 139 (TBMB scaffold)]", "values": [
      {"measurement": "Kd", "setting": "[7]", "result": 0.8, "unit": "nM"}
    ]}
  ]
}
